Targets include HTRA1, Q92743; DLG1_2, Q12959; PTPN3, P26045; DLG4_2, P78352; SNX27, Q96L92; MAST2, Q6P0Q8; FRMPD3, Q5JV73; FRMPD2_2, Q68DX3; LNX1_2, Q8TBB1; Inadl_3, Q8NI35; SCRIB_2, Q14160.
Common to all, as to experiment: holdup assay
Design in all cases: key: below the threshold = too weak to quantify, mostly under pKd 3.1 to 4
Common to all, as to details: plain residues with an end cap or a label only (N-terminal biotin on a linker: ado-ado)

The next test concerns the target T1, FRMPD1, Q5SYB0.
T1 sequence (Q5SYB0 52-145, limits assumed, looked up): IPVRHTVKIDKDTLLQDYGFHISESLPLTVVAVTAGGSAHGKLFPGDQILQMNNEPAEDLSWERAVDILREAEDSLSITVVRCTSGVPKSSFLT

Another test deals with T2, TIAM2, Q8IVF5.
T2 sequence (Q8IVF5 885-986, limits assumed, looked up): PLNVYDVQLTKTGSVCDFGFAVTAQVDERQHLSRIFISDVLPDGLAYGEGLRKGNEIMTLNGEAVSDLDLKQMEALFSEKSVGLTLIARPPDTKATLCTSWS

For the next test, the target named is T3, PDZRN3_1, Q9UPQ7.
T3 sequence (Q9UPQ7 244-349, limits assumed, looked up): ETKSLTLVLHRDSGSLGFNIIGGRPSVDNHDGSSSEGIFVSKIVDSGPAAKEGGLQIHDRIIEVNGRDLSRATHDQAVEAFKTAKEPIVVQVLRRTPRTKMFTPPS

Another test addresses T4, LIN7B, Q9HAP6.
T4 sequence (Q9HAP6 88-185, limits assumed, looked up): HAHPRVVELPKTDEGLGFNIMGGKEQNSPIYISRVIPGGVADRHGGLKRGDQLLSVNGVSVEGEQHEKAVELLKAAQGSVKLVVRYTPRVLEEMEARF

The next test addresses T5, SYNJ2BP, P57105.
T5 sequence (P57105 8-110, limits assumed, looked up): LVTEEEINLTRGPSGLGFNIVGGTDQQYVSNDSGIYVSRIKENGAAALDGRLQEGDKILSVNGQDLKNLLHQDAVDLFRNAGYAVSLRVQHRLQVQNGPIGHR

Another test addresses T6, PDZD7_3, Q9H5P4.
T6 sequence (Q9H5P4 857-944, limits assumed, looked up): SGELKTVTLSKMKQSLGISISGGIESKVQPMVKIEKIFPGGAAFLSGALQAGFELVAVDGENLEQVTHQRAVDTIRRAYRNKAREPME

The next test deals with T7, SIPA1L2, Q9P2F8.
T7 sequence (Q9P2F8 945-1036, limits assumed, looked up): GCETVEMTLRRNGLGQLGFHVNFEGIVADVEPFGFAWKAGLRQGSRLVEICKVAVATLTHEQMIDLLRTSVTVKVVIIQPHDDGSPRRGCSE

The next test deals with T8, LIN7A, O14910.
T8 sequence (O14910 103-200, limits assumed, looked up): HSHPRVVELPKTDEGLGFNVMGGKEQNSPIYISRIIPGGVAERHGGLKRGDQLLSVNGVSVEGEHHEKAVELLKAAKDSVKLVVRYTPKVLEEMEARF

The target of a further test is T9, RAPGEF6, Q8TEU7.
T9 sequence (Q8TEU7 525-625, limits assumed, looked up): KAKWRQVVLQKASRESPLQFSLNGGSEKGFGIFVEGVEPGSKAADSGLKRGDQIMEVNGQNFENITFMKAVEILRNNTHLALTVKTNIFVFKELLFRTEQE

The target in another test is T10, DFNB31_1, Q9P202.
T10 sequence (Q9P202 135-233, limits assumed, looked up): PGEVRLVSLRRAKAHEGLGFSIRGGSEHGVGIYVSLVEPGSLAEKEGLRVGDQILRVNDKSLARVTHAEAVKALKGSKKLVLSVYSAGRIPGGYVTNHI

A further test addresses T11, LNX2_2, Q8N448.
T11 sequence (Q8N448 334-432, limits assumed, looked up): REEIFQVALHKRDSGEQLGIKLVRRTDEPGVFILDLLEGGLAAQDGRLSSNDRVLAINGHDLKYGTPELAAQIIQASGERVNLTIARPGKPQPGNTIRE

For another test, the target named is T12, NHERF3_4, Q5T2W1.
T12 sequence (Q5T2W1 373-468, limits assumed, looked up): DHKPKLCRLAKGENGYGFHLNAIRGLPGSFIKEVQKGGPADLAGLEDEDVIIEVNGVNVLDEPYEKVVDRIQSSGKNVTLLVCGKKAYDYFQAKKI

The target of another test is T13, MPDZ_10, O75970.
T13 sequence (O75970 1624-1722, limits assumed, looked up): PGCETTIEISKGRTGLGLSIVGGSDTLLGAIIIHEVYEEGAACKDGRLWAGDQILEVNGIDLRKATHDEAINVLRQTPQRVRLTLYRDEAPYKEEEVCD

Chain of HTRA1, Q92743 (Q92743 360-477): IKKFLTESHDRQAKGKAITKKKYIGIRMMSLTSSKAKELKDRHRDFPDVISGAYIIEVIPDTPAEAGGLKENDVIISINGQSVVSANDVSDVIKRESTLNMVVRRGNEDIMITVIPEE
Chain of SCRIB_2, Q14160 (Q14160 857-960): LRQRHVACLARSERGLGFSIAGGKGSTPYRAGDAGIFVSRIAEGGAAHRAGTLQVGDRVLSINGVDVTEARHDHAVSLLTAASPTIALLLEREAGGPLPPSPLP
Chain of LNX1_2, Q8TBB1 (Q8TBB1 371-470): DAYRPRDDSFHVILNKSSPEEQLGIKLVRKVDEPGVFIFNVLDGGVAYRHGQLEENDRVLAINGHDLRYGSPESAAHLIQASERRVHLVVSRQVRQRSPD
Chain of PTPN3, P26045 (P26045 505-587): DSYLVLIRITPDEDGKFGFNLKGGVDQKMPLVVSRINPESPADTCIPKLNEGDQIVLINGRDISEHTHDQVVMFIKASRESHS
Chain of Inadl_3, Q8NI35 (Q8NI35 359-469): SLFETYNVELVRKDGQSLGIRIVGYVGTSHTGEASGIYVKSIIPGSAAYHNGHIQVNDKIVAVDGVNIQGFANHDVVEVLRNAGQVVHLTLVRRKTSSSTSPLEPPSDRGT
Chain of DLG1_2, Q12959 (Q12959 314-412): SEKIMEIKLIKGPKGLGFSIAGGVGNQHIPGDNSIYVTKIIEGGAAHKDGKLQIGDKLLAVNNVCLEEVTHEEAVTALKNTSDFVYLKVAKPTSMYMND
Chain of FRMPD3, Q5JV73 (Q5JV73 12-100): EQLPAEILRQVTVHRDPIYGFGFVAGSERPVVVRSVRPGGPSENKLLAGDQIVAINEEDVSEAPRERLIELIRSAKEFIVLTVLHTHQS
Chain of MAST2, Q6P0Q8 (Q6P0Q8 1099-1202): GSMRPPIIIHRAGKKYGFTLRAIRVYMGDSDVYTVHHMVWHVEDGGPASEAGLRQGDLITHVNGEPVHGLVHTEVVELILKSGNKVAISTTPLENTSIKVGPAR
Chain of DLG4_2, P78352 (P78352 155-259): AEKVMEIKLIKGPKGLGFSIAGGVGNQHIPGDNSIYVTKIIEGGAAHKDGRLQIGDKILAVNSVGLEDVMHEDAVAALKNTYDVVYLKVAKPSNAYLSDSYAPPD
Chain of FRMPD2_2, Q68DX3 (Q68DX3 944-1038): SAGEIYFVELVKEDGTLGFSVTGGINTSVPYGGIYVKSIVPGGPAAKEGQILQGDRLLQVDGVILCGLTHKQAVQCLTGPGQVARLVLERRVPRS

On to VRPGVKESLV [SCN4A, P35499], for which the negative-log Kd (pKd) with HTRA1, Q92743 is 3.89; with FRMPD1, Q5SYB0 it was “below the threshold”; in the test with TIAM2, Q8IVF5 it was “below the threshold”; in the test with DLG1_2, Q12959, 5.64; in the test with PDZRN3_1, Q9UPQ7 it was 4.38; in the test with LIN7B, Q9HAP6, 4.04. Also, the pKd is 4.78 with PTPN3, P26045; 5.09 in the test with SYNJ2BP, P57105; 5.71 in the test with DLG4_2, P78352; 5.05 in the test with PDZD7_3, Q9H5P4; 5.28 with SNX27, Q96L92; “below the threshold” with SIPA1L2, Q9P2F8. The pKd in the test with LIN7A, O14910 was 3.94; in the test with MAST2, Q6P0Q8, 4.87; in the test with RAPGEF6, Q8TEU7, “below the threshold”; with FRMPD3, Q5JV73 it was “below the threshold”; with FRMPD2_2, Q68DX3, 3.91; with LNX1_2, Q8TBB1, “below the threshold”. In addition, the negative logarithm of the Kd (pKd) in the test with DFNB31_1, Q9P202 is 3.73; in the test with LNX2_2, Q8N448, 3.91; in the test with Inadl_3, Q8NI35, “below the threshold”; with SCRIB_2, Q14160 it was 4.18; with NHERF3_4, Q5T2W1, “below the threshold”; in the test with MPDZ_10, O75970, “below the threshold”.

For the molecule LDKESFLTWL [YAP1, P46937], the pKd was 5.58 in the test with HTRA1, Q92743; “below the threshold” in the test with FRMPD1, Q5SYB0; 3.6 in the test with TIAM2, Q8IVF5; “below the threshold” with DLG1_2, Q12959; 3.73 with PDZRN3_1, Q9UPQ7; 3.48 with LIN7B, Q9HAP6. Moreover, the pKd in the test with PTPN3, P26045 was 4.62; in the test with SYNJ2BP, P57105, 4.47; in the test with DLG4_2, P78352 it was “below the threshold”; with PDZD7_3, Q9H5P4 it was 4.92; with SNX27, Q96L92, 5.11; in the test with SIPA1L2, Q9P2F8 it was “below the threshold”. Also, the pKd result with LIN7A, O14910 was “below the threshold”; with MAST2, Q6P0Q8 it was 5.6; with RAPGEF6, Q8TEU7, “below the threshold”; in the test with FRMPD3, Q5JV73, 4.4; in the test with FRMPD2_2, Q68DX3, 4.27; with LNX1_2, Q8TBB1 it was “below the threshold”. In addition, the pKd with DFNB31_1, Q9P202 was 3.77; with LNX2_2, Q8N448, 4.38; with Inadl_3, Q8NI35, 4.38; in the test with SCRIB_2, Q14160 it was “below the threshold”; in the test with NHERF3_4, Q5T2W1 it was 4.18; in the test with MPDZ_10, O75970, “below the threshold”.

As to RDFDYIADWC [PKN2, Q16513], the pKd in the test with HTRA1, Q92743 is 4.72; with FRMPD1, Q5SYB0 it was “below the threshold”; with TIAM2, Q8IVF5, 4.19; with DLG1_2, Q12959, “below the threshold”; in the test with PDZRN3_1, Q9UPQ7, “below the threshold”; with LIN7B, Q9HAP6, 3.9. The pKd with PTPN3, P26045 is 3.85; in the test with SYNJ2BP, P57105, 3.73; with DLG4_2, P78352, “below the threshold”; with PDZD7_3, Q9H5P4, “below the threshold”; in the test with SNX27, Q96L92, 4.32; with SIPA1L2, Q9P2F8, “below the threshold”. Besides, the pKd result is “below the threshold” in the test with LIN7A, O14910; 3.64 in the test with MAST2, Q6P0Q8; “below the threshold” in the test with RAPGEF6, Q8TEU7; 3.48 with FRMPD3, Q5JV73; “below the threshold” with FRMPD2_2, Q68DX3; 3.83 with LNX1_2, Q8TBB1. Besides, the pKd with DFNB31_1, Q9P202 is 3.69; with LNX2_2, Q8N448 it was 4.59; in the test with Inadl_3, Q8NI35 it was 3.6; with SCRIB_2, Q14160, “below the threshold”; with NHERF3_4, Q5T2W1, “below the threshold”; with MPDZ_10, O75970, 3.87.

Consider NRVDSKETEC [ADAM17, P78536], for which the pKd in the test with HTRA1, Q92743 is 3.56; in the test with FRMPD1, Q5SYB0 it was “below the threshold”; with TIAM2, Q8IVF5 it was 3.92; with DLG1_2, Q12959, 4.54; with PDZRN3_1, Q9UPQ7 it was 3.57; in the test with LIN7B, Q9HAP6, 4.05. The negative logarithm of the Kd (pKd) with PTPN3, P26045 was 4.98; in the test with SYNJ2BP, P57105, 4.28; with DLG4_2, P78352, 4.34; with PDZD7_3, Q9H5P4 it was “below the threshold”; in the test with SNX27, Q96L92, 5.06; in the test with SIPA1L2, Q9P2F8, “below the threshold”. Besides, the negative-log Kd (pKd) result is “below the threshold” with LIN7A, O14910; 4.86 with MAST2, Q6P0Q8; “below the threshold” in the test with RAPGEF6, Q8TEU7; “below the threshold” in the test with FRMPD3, Q5JV73; “below the threshold” with FRMPD2_2, Q68DX3; “below the threshold” with LNX1_2, Q8TBB1. The negative-log Kd (pKd) with DFNB31_1, Q9P202 was 3.72; in the test with LNX2_2, Q8N448, 3.5; with Inadl_3, Q8NI35, “below the threshold”; with SCRIB_2, Q14160, “below the threshold”; with NHERF3_4, Q5T2W1, 3.49; with MPDZ_10, O75970 it was “below the threshold”.

Take RRLQGTSSMV [GOLT1A, Q6ZVE7]: the pKd with HTRA1, Q92743 was 4; with FRMPD1, Q5SYB0 it was “below the threshold”; with TIAM2, Q8IVF5, 4.03; in the test with DLG1_2, Q12959, 4.71; in the test with PDZRN3_1, Q9UPQ7 it was “below the threshold”; in the test with LIN7B, Q9HAP6 it was 3.72. Moreover, the negative-log Kd (pKd) with PTPN3, P26045 was 3.99; in the test with SYNJ2BP, P57105 it was 4.72; in the test with DLG4_2, P78352 it was 4.71; with PDZD7_3, Q9H5P4, “below the threshold”; with SNX27, Q96L92, “below the threshold”; with SIPA1L2, Q9P2F8 it was “below the threshold”. The pKd result in the test with LIN7A, O14910 is “below the threshold”; with MAST2, Q6P0Q8, 4.72; with RAPGEF6, Q8TEU7, “below the threshold”; with FRMPD3, Q5JV73, “below the threshold”; with FRMPD2_2, Q68DX3, “below the threshold”; in the test with LNX1_2, Q8TBB1, “below the threshold”. Moreover, the pKd result was “below the threshold” with DFNB31_1, Q9P202; 3.78 with LNX2_2, Q8N448; “below the threshold” in the test with Inadl_3, Q8NI35; 3.57 in the test with SCRIB_2, Q14160; “below the threshold” in the test with NHERF3_4, Q5T2W1; 3.65 with MPDZ_10, O75970.

(Values after PMC9482650, “Quantitative fragmentomics allow affinity mapping of interactomes” (Nature Communications, 2022).)
